The subject of one assay is DU145 tumor. Briefly: SC DU145 prostate tumor xenograft. The class given is in vivo, nude NCr (nu/nu) mice. The note with it: LT1009 50 mg/kg ip q2d; Avastin 20 mg/kg q4d; Paclitaxel 7.5 mg/kg q1d×5. The procedure: Nude mice were implanted sc near the right flank with one fragment per mouse of DU145 tumor from an in vivo passage. All treatments were initiated the day when 60 mice in each experiment established tumors ranging in size from approximately 100 to 200 mm^3. […] Paclitaxel and Avastin were administered iv and ip at a dosage of 7.5 mg/kg/dose and 20 mg/kg/dose, q1d×5 and q4d, respectively, injected in a volume of 0.1 mL/10 g body weight.
During the course of the study tumor growth was monitored by measuring the sc tumors on three axes and calculating the volume. At the end of the study final tumor weights and volumes were determined and then the mice were sacrificed, the tumors harvested. Microvascular densities (MVD) of the tumors were then determined by CD-31 staining.

Assay [1] deals with fibroblasts (Swiss 3T3, murine cardiac, WI-38). Briefly: S1P-stimulated fibroblast proliferation, migration, collagen expression and myofibroblast differentiation. In kind it is cell-based. The note with it: 1 μg/mL antibody. The procedure: See Example 7, below, for experimental details. […] In these experiments, fibroblasts were serum-starved and then treated with 0, 0.1, 0.5, or 1 μM S1P+/−1 μg/mL SPHINGOMAB for 12-24 hr. […] SPHINGOMAB neutralized each of these S1P effects. SPHINGOMAB reduced perivascular fibrosis in vivo in a murine model of a permanent myocardial infarction (E).
S1P makes profound contributions to wound healing by activating fibroblast migration, proliferation and collagen production; SPHINGOMAB neutralizes these effects. Several studies using multiple types of fibroblasts confirm S1P's ability to promote wound healing: 1) S1P increased Swiss-3T3 fibroblast proliferation as measured by ^3H-thymidine incorporation using standard methods (FIG. 7A); 2) S1P promoted the migration of cardiac fibroblasts in a standard scratch wound healing assay. […] In each of these assays, SPHINGOMAB neutralized S1P's. It is anticipated that ocular fibroblasts would respond similarly to S1P and SPHINGOMAB.

The subject of another assay is HUVECs. The experiment in a line: HUVEC tube formation on GF-reduced Matrigel. The note with it: co-incubated with S1P. In kind it is cell-based, human. Here is the method:
FIG. 5 has two panels, A and B. In panel A, S1P is shown to promote neovascularization through induction of HUVECs tube formation and migration, which is reduced by SPHINGOMAB. […] The number of cells that migrated to the Matrigel membrane were counted in five independent fields.
Experiments were performed as described by Visentin et al. (Cancer Cell 2006 March; 9(3):225-38).

The subject of assay [2] is experimental autoimmune encephalomyelitis. The experiment in a line: MOG35-55 induced EAE model of multiple sclerosis. In kind it is in vivo, C57BL/6J mice. The procedure: Experimental protocol—the following experiments were conducted in the laboratory of Dr. Howard Weiner in collaboration with Lpath, Inc. A peptide fragment of myelin oligodendrocyte glycoprotein (MOG35-55; […] (SEQ ID NO: 52)) is used to cause experimental EAE in mice. Mendel, I. et al., A myelin oligodendrocyte glycoprotein peptide induces typical chronic experimental autoimmune encephalomyelitis in H-2b mice: fine specificity and T cell receptor V beta expression of encephalitogenic T cells, Eur J Immunol. 1995 July; 25(7):1951-9. EAE was induced in mice by immunization with a peptide corresponding to amino acids 35-55 of myelin oligodendrocyte glycoprotein (MOG) peptide (MOG35-55) to induce chronic experimental autoimmune encephalomyelitis (EAE). Following immunization with MOG35-55, mice develop an acute episode of EAE that is followed by a gradually developing progressive disease thought to model several features of progressive multiple sclerosis. Mice were treated with antibody to S1P and treated mice were followed to study the effects of S1P-specific antibody on the clinical manifestations of this acute model of EAE. At the end of the experiment, treated mice were also used to analyze the effect of anti-S1P administration on the immune response.
In a first set of experiments, using 10 mice per group with an average weight of 20 gr, EAE was induced in C57BL/6J mice with 150 ug/mouse MOG35-55 in CFA along with […] pertussis toxin on days 0 and 2. Anti-S1P antibody LT1002 (Sphingomab™) was administered i.v. at a dosage of 75 mg/Kg on day-1, followed by i.p. dosing at 25 mg/Kg every 2 days. Treated mice were followed for 25 days to study the effects of S1P-specific antibodies on the clinical manifestations of this acute model of EAE. Clinical manifestations of the disease include flaccid tail, and limb paralysis which may be scored to give an objective evaluation of clinical symptoms. The standard evaluation of disease severity in the EAE model measures clinical behavior on a 0-6 scale: 0) normal; 1) flaccid tail; 2) abnormal gait, hind leg weakness; 3) partial paralysis, severe ataxia; 4) minimal hind leg movement after painful stimulus; 5) no hind leg movement; 6) moribund state with little or no movement. Means were compared between groups to determine the effect of treatment on clinical scores and body weight gain. Statistical significance of clinical scores and weight were resolved using biostatistical analysis.
At day 17, two representative mice were sacrificed to study the cellular immune response (proliferation and cytokines) and to analyze CNS pathology. Spinal cords were dissected and sectioned. Sections were stained with hematoxylin and eosin (H&E) to reveal inflammatory cells, with Luxol to visualize myelin, or with silver stain to visualize axons. Total levels of CD4+FoxP3+Treg cells were evaluated by FACS analysis of blood samples taken from the tail on day 17. At day 25, treated mice were analyzed to see the effect of anti-S1P administration on the immune response.
Injection of synthetic MOG peptide (amino acids 35-55 of myelin oligodendrocyte glycoprotein, referred to as MOG35-55) causes mice to develop significant specific T cell responses in addition to neurological symptoms. Spahn et al., (1999) Eur. J. Immunol 29:4060-4071. Anti-S1P administration was associated with a significant decrease in this proliferative recall response to MOG35-55. Mice were primed by injections of MOG peptide. The spleens were removed and homogenized, and splenocytes were pulsed with different amounts of MOG peptide. Subsequently, cells were pulsed with radiolabel and incubated before cells were harvested and label incorporation was assessed by scintillation counting. […] As measured in cpm, the recall proliferative response was decreased by approximately 36%, 38% and 22% after anti-S1P antibody treatment (at 4 ug/ml, 20 ug/ml and 100 ug/ml of MOG35-55, respectively).

Where [3] appears, read: 75 mg/Kg i.v. day -1, then 25 mg/Kg i.p. every 2 days.

As to “LT1009: humanized anti-S1P IgG1/kappa mAb with Cys to Ala in HCDR2, light chain with 5 backmutations; SEQ ID NO: 31/32”, in the assay on DU145 tumor, the “% Reduction compared to Vehicle-Treated Mice” value came to 28% and the “Final Tumor Weights” value stood at 2242 mg.

B1: LT1002: murine anti-S1P monoclonal antibody, IgG1 kappa, from hybridoma clone 306D326.26 (antibody, listed as Mus sp., V domains shown)
VH: QAHLQQSDAELVKPGASVKISCKVSGFIFIDHTIHWMKQRPEQGLEWIGCISPRHDITKYNEMFRGKATLTADKSSTTAYIQVNSLTFEDSAVYFCARGGFYGSTIWFDFWGQGTTLTVS
VL: ETTVTQSPASLSMAIGEKVTIRCITTTDIDDDMNWFQQKPGEPPNLLISEGNILRPGVPSRFSSSGYGTDFLFTIENMLSEDVADYYCLQSDNLPFTFGSGTKLEIK
On to B1, for which the “effect on S1P-stimulated fibroblast proliferation, migration, collagen expression, myofibroblast differentiation” value in assay [1] is recorded as “neutralized”. For the same molecule, in the assay with HUVECs, the “formation of capillary-like structures” value is recorded as “failed to form capillary-like structures”. Besides, in assay [2] (4 ug/ml MOG35-55), the “decrease in recall proliferative response to MOG35-55 (cpm)” value (shortened to “decrease … (cpm)”) is “approximately 36%”. Further, the “decrease … (cpm)” value in assay [2] (20 ug/ml MOG35-55) was roughly 38%. The “decrease … (cpm)” value in assay [2] (100 ug/ml MOG35-55) is roughly 22%. Further, in assay [2] (setting [3]), the EAE development result is “significant inhibition” and the “EAE severity score (0-6 scale) at plateau” value is “approximately 2”. Moreover, in assay [2] (antibody-treated animals), the circulating lymphocytes entry is “approximately 10%”; the “demyelination in spinal cord” value is “less than 1%”; the “spleen CD4+ T cells, of lymphocytes in spleen” value is “approximately 7.6%”. Further, the axonal loss result in assay [2] (antibody-treated mice) is on record as “less than 2%”. Moreover, in assay [2] (mouse, in vivo), the “CD4+CD25+Foxp3+ Treg in spleen” value is recorded as “significant increase”, the “IFNγ secretion by splenocytes upon MOG35-55 stimulation” value was “lower levels”, the “IL-10 secretion by splenocytes upon MOG35-55 stimulation” value is “higher levels” and the “IL-17 secretion by splenocytes upon MOG35-55 stimulation” value was “lower levels”. Also, the “circulating CD4+CD25+Foxp3+ Treg cells” value in assay [2] (mouse, in vivo) is recorded as “statistically nonsignificant increase”. In assay [2] (vs control animals), the “decrease in spleen CD4+ T cells after antibody treatment” value was roughly 35%. In addition, the “decrease in circulating lymphocytes after antibody treatment” value in assay [2] (vs control animals with EAE) is given as roughly 26%. In assay [2] (vs untreated controls with EAE), the “decrease in axonal loss after treatment” value is roughly 91%, the “decrease in demyelination after treatment” value is on record as roughly 92% and the “decrease in number of inflammatory cells/mm^2 in spinal cords” value is “about 85%”.
